Test results taken from the nanobody polyreactivity screen of Harvey et al. (2022).

Test: yeast display, Sf9 membrane polyspecificity reagent, FACS + sequencing; frameworks hold sequencing errors
Summary of the method: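 Polyreactivity labels are assigned by the sorting gate from which each nanobody was recovered. The gates were low and high (top ~1%), set on anti-HA fluorescence for expression and streptavidin fluorescence for reagent binding. Before sorting, galactose-induced (36–48 hours) yeast display cells were stained for 1 hour at 4 °C with 10% biotinylated, detergent-solubilized Sf9 membrane reagent.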
With “QVQLVESGGGLVQAGGSLRLSCAASGSTFFSYVMGWYRQAPGKERELVAAISNGGSTYYADSVKGRFTISRDNAKNSVYLQMNSLKPEDTAVYYCAAGGRRKRGNYWGQGTQVTVSS” the “polyreactivity (PSR sort gate)” value was “high polyreactivity”.
In the case of “QVQLVESGGGLVQAGGSLRLSCAASGSTFFTNVKGWYRQAPGKERELVAVIRWRGSDTYYADSVKGRFTISRDNAKNTVYLQMKSLKPEDTAFYYCNAKESFYPTTGEQGYSYAYWGQGTQLTVSS”, the “polyreactivity (PSR sort gate)” value is reported as “low polyreactivity”.
In the case of “QVQLVESGGGLVQAGGSLRLSCAASGSTFFTYTMGWYRQAPGKERELVAAISSGGSTYYADSVKGRFTISRDNAKNTVYLQMNSLKPEDTAVYYLLRGQGTQVTVSS”, the “polyreactivity (PSR sort gate)” value is reported as “low polyreactivity”.
With “QVQLVESGGGLVQAGGSLRLSCAASGSTFFVNAMGWYRQAPGKERELVASITVSSGRTYYADSVKGRFTISRDNAKNTVYLQMNSLKPEDTAVYYCAARHLYWRREGYYWGQGYQVTVSS” the “polyreactivity (PSR sort gate)” value was “high polyreactivity”.
For “QVQLVESGGGLVQAGGSLRLSCAASGSTFFWYAMGWYRQEPGKERELVAAINWRGDRTYYADSVKGRFTISRDNAKNTVYLQMNSLKPEDTAVYYCNAVRVHAYSTGEYGYWGQGTQVTVSS”, the “polyreactivity (PSR sort gate)” value was “high polyreactivity”.
For “QVQLVESGGGLVQAGGSLRLSCAASGSTFFYYAMGWYRQAPGKERELVAAITSSGGRTYYADSVKGRFTISRDNAKNTVYLQMNSLKPEDTAVYYCAARDYRQSRYEYWGQGTQVTVSS”, the “polyreactivity (PSR sort gate)” value was “high polyreactivity”.
In the case of “QVQLVESGGGLVQAGGSLRLSCAASGSTFGANAMGWYRQAPGKEREFVAAISGSGTTTYYADSVKGRFTISRDNAKNTVYLQINSLKPEDTAVYYCAKTRKAHWLEYWGQGTQVTVSS”, the “polyreactivity (PSR sort gate)” value is reported as “low polyreactivity”.
For “QVQLVESGGGLVQAGGSLRLSCAASGSTFGDNAMGSYRQAPGKERELVAAISSGGGSTYYADSVKGRFTISRDNAKNTVYLQMNSLKPEDTAVYYCAADVTLTLYRYILDYWGQGTQVTVSS”, the “polyreactivity (PSR sort gate)” value was “low polyreactivity”.
With “QVQLVESGGGLVQAGGSLRLSCAASGSTFGDNAMGWYRQAPGKERELVAAISSSGDSTYYADSVKGRFTISRDNAKNTVYLQMNSLKPEDTAVYYCAADRGSTAGSVTYTPGNYWGQGTQVTVSS” the “polyreactivity (PSR sort gate)” value was “low polyreactivity”.
For “QVQLVESGGGLVQAGGSLRLSCAASGSTFGDYAMGWYRQAPGKERELVAAISSSGGSTYYADSVKGRFTISRDNAKNTVYLQMNSLKPEDTAVYYCNADRFLYYARTYWYFWFGYWGQGTQVTVSS”, the “polyreactivity (PSR sort gate)” value was “low polyreactivity”.
For “QVQLVESGGGLVQAGGSLRLSCAASGSTFGDYDMGWYRQAPGKERELVAAITIGGITTYADSVKGRFTISRDNAKNTVYLQMNSLKPEDTAVYYCAAAERGDWDDYWGQGTQVTVSS”, the “polyreactivity (PSR sort gate)” value was “low polyreactivity”.
For “QVQLVESGGGLVQAGGSLRLSCAASGSTFGDYTMGWYRQAPGKERELVAAISSGGSTYYADSVKGRFTISRDNAKNTVYLQMNSLKPEDTAVYYCAAYTKRYLYNYWGQGTQVTVSS”, the “polyreactivity (PSR sort gate)” value was “high polyreactivity”.
In the case of “QVQLVESGGGLVQAGGSLRLSCAASGSTFGENDRGWSRQEPGKERELVAAITWSGGSTYYADSVKGRFTISRDNAKNTVYLQMNSLKPEDTAVYYCAADRYWIVLYDYWGQGTQVTVSS”, the “polyreactivity (PSR sort gate)” value is reported as “low polyreactivity”.
In the case of “QVQLVESGGGLVQAGGSLRLSCAASGSTFGEYPMGWYRQAPGKEREFVAAITFSDDSTYYADSVKGRFTISRDNAKNTVYLQMNSLKPEDTAVYYCAAVLSRHYDYWGQGTQVTVSS”, the “polyreactivity (PSR sort gate)” value is reported as “high polyreactivity”.
With “QVQLVESGGGLVQAGGSLRLSCAASGSTFGFYAMGGYRQAPGKERELVAAITSGDITYADSVKGRFTISRDNAKNTVYLQMNSLKPEDTAVYYCATTSYGYWFGYIPEVDYWGQGTQVSVSS” the “polyreactivity (PSR sort gate)” value was “low polyreactivity”.
With “QVQLVESGGGLVQAGGSLRLSCAASGSTFGFYAMGWYRPAPGKERELVAAISWSTTSTYYADSVKGRFTISRDNAKNTVYLQMNSLKPEDTAVYYCAAEEWYLWYYYWGQGTQVTVSS” the “polyreactivity (PSR sort gate)” value was “high polyreactivity”.
For “QVQLVESGGGLVQAGGSLRLSCAASGSTFGGYAMGWYRQAPGKEWELVAAISWNGDSTYYADSVKGRFTISRDNAKNTVYLQMNSLKPEDTAVYYCAAPYSGPYRSYEYYWGQGTQVTVSS”, the “polyreactivity (PSR sort gate)” value was “low polyreactivity”.
With “QVQLVESGGGLVQAGGSLRLSCAASGSTFGGYVMGWYRQAPGKERELVAAIRRVGRTYYADSVKGRFTISRDNAKNTVYLQMNSLKPEDTAVYYCATSYYLAYRSITPYDYWGQGTQVTVSS” the “polyreactivity (PSR sort gate)” value was “low polyreactivity”.
In the case of “QVQLVESGGGLVQAGGSLRLSCAASGSTFGGYVMGWYRQAPGKERELVAAISRSGASTYYADSVKGRFTISRDNAKNTVYLQMNSLKPEDTAVYYCAAYQARGMDYWGQGTQVTVSS”, the “polyreactivity (PSR sort gate)” value is reported as “high polyreactivity”.
For “QVQLVESGGGLVQAGGSLRLSCAASGSTFGHYAMGWYRQAPGKERELVAVISRSGARTYYADSVKGRFTISRDNAKNTVYLQMNSLKPEDTAVYYCNAGPYGGNPFDYWGQGTQVTVSS”, the “polyreactivity (PSR sort gate)” value was “high polyreactivity”.
With “QVQLVESGGGLVQAGGSLRLSCAASGSTFGINAMGWYRQAHGKERELVARISSGVRTYYADSVKGRFTISRDNAKNTVYLQMNSLKPEDTAVYYCAAVYYRGVDRAILSYRYYYWGQGTQVTVSS” the “polyreactivity (PSR sort gate)” value was “high polyreactivity”.
In the case of “QVQLVESGGGLVQAGGSLRLSCAASGSTFGINAMVWYRQAPGKERELVASITRRGGSTYYADSVKGRFTISRDNAKNTVYLQMNSLKPEDTAVYYCNKTYRYGTPLYDYWGQGTQVTVSS”, the “polyreactivity (PSR sort gate)” value is reported as “high polyreactivity”.
In the case of “QVQLVESGGGLVQAGGSLRLSCAASGSTFGIYAMRWYRQAPGKERELVAAISSRGSTYYADSVKGRFTISRDNAKNTVYLQMNSLKPEDTAVYYCAAKVWARVDGRQFRMVYWGQGTQVTVSS”, the “polyreactivity (PSR sort gate)” value is reported as “high polyreactivity”.
For “QVQLVESGGGLVQAGGSLRLSCAASGSTFGIYPMAGNRTEPGKERELVAAISSGGSTNYADSVKGRFTISRDNAKNSVYLQMNSLNPEDTAVYYCAVESVYEYGGYVDSAYDYWGQGTQVTVSS”, the “polyreactivity (PSR sort gate)” value was “low polyreactivity”.
For “QVQLVESGGGLVQAGGSLRLSCAASGSTFGKNAMGWSRQAPGNERELVAGITSGGSTYYADSVKGRFTISRDNAKNTVYLQMNSLKPEDTAVYYCAAVRRWKYDWGQGTQVTVSS”, the “polyreactivity (PSR sort gate)” value was “high polyreactivity”.
For “QVQLVESGGGLVQAGGSLRLSCAASGSTFGKNAMGWYRQAPRKERELVAAISRSGGRTYYADSVKGRFTISRDNAKNTVYLQMNSLKPEDTAVYYCAREWYTAGSGDYWGQGTQVTVSS”, the “polyreactivity (PSR sort gate)” value was “low polyreactivity”.
With “QVQLVESGGGLVQAGGSLRLSCAASGSTFGLKAMGWYRQAPGKERELVAAITSGGTYYADSVKGRFTISRDNAKNTVYLQMNSLKPEDTAVYYCAADGTWSIYGGLYYWGQGTQVTVSS” the “polyreactivity (PSR sort gate)” value was “low polyreactivity”.
For “QVQLVESGGGLVQAGGSLRLSCAASGSTFGLNPMGWYRQAPGKERELVAAISTSGGSTYYADSVKGRFTISRDNAKNTVYLQMNSLKPEDTAVYYCAAEVVAGYDYSQYYYWGQGTQVTVSS”, the “polyreactivity (PSR sort gate)” value was “low polyreactivity”.
For “QVQLVESGGGLVQAGGSLRLSCAASGSTFGLYAMGWYRQAPGKEREFVAAISYSGSSTYYADSVKGRFTISRDNAKNTVYLQMNSLKPSDTAVYYCAARRSEHGYTYWGQGSQVTVSS”, the “polyreactivity (PSR sort gate)” value was “high polyreactivity”.
With “QVQLVESGGGLVQAGGSLRLSCAASGSTFGLYGMGWYRQAPGKERELVAAITYSGGGTYYADSVKGRFTISRDNAKNTVYLQMNSLKPEDTAVYYCAAEYYSSITGWYYYWGQGTLVTVSS” the “polyreactivity (PSR sort gate)” value was “low polyreactivity”.
In the case of “QVQLVESGGGLVQAGGSLRLSCAASGSTFGLYVMGWYRQAPGKERELVAAINRICSRTYYADSVKGRFTISRDNAKNTVYLQMNSLKPEDTAVYYCAADYDYTSPGDDYWGQGTQVTVSS”, the “polyreactivity (PSR sort gate)” value is reported as “high polyreactivity”.
In the case of “QVQLVESGGGLVQAGGSLRLSCAASGSTFGLYVMGWYRQAPGKERELVATITRSGGSTYADSVKGRFTISRDNAKNTVYLQMNSLKPEDTAVYYCNADYPKPVYYSYWHQEFEYWGQGTQVTVSS”, the “polyreactivity (PSR sort gate)” value is reported as “low polyreactivity”.
In the case of “QVQLVESGGGLVQAGGSLRLSCAASGSTFGNNAMGWYRQAPGKERELVAAITFRGTSTYADSVKGRFTISRDNAKNTVSLQMNSLKPEDTAVYYCAAVVYFVSYRFYYWGQGTQVTVSS”, the “polyreactivity (PSR sort gate)” value is reported as “high polyreactivity”.
With “QVQLVESGGGLVQAGGSLRLSCAASGSTFGNYAMGWYRQAPGKERELVATISRSGGSTYYADSVKGRFTISRDNAKNTVYLQMNSLKPEDTAVYYCNRRYYTRKPDYNSWGQGTQVTVSS” the “polyreactivity (PSR sort gate)” value was “high polyreactivity”.
For “QVQLVESGGGLVQAGGSLRLSCAASGSTFGNYAMGWYRQAPGKERELVAVITSAGSTYYADSVKGRFTISRDNAKNTVYLQMNSLKPEDTAVYYCNTGKHVRYYYWGQGTQVTVSS”, the “polyreactivity (PSR sort gate)” value was “low polyreactivity”.
With “QVQLVESGGGLVQAGGSLRLSCAASGSTFGPYALGWYRQAPGKERELVAAIDKSGGSTYYADSVKGRFTISRDNAKNTVYLQMNSLKPEDTAVYYCAADMLRYFGYYDYDSWGQGTQVTVSS” the “polyreactivity (PSR sort gate)” value was “low polyreactivity”.
With “QVQLVESGGGLVQAGGSLRLSCAASGSTFGPYAMGWYRQAPGKERELVAGITWSSASTYYADSVKGRFTISRDNAKNTVYLQMNSLKPEDTAVYYCIADSESTDYDYWGQGTQVTVSS” the “polyreactivity (PSR sort gate)” value was “low polyreactivity”.
For “QVQLVESGGGLVQAGGSLRLSCAASGSTFGPYAMGWYRQAPGKERELVATISGSGSSTYYADSVKGRFTISRDNAKNTVYLQMNSLKPEDTAVYYCATDLYFDLRYDYWGQGTQVTVSS”, the “polyreactivity (PSR sort gate)” value was “low polyreactivity”.
For “QVQLVESGGGLVQAGGSLRLSCAASGSTFGPYTMGWYRQAPGKERELVATISSGGSTYYADSVKGRFTISRDNAKNTVYLQMNSLKPEDTAVYYCAARYWSIYDYWGQGTQVTVSS”, the “polyreactivity (PSR sort gate)” value was “low polyreactivity”.
In the case of “QVQLVESGGGLVQAGGSLRLSCAASGSTFGQYGMGWYRQAPGKERELVAAIRIGGSTNYADSVKGRFTISRDNAKNTVYLQMNSLKPEDTAVYYCNAGGTPTWTHGGYIELDYWGQGTQVTVSS”, the “polyreactivity (PSR sort gate)” value is reported as “low polyreactivity”.
In the case of “QVQLVESGGGLVQAGGSLRLSCAASGSTFGRNAMGWYRQAPGKERELVAAISRSGGSTYYADSVKGRFTISRDNAKNTVYLQMNRLKPEDTAVYYCAAAVSPGGVYGNRYYYWGQGTQVTVSS”, the “polyreactivity (PSR sort gate)” value is reported as “high polyreactivity”.
For “QVQLVESGGGLVQAGGSLRLSCAASGSTFGRNAMGWYRQAPGKERELVAAITASGGTTYYADSVKGRFTISRDNAKNTVFLQMNSLKPEDTSVYYCARAGHFSFKYDYWGQGTQVTVSS”, the “polyreactivity (PSR sort gate)” value was “low polyreactivity”.
In the case of “QVQLVESGGGLVQAGGSLRLSCAASGSTFGRNAMGWYRQAPGKERELVAGITRRGGSTYYADSVKGRFTISRDNAKNTVYLQMNSLKPEDTAVYYCNTRGQSSSGIYDYWGQGTQVTVSS”, the “polyreactivity (PSR sort gate)” value is reported as “high polyreactivity”.
